Assay results from patent US20220332795A1 (ARO BIOTHERAPEUTICS, published 2022).

B1: SEQ ID NO 168 (designed binder)
chain: MLPAPKNLVVSRVTEDSARLSWTAPDAAFDSFYIAYAEPRPDGEAILLDVPGSERSYDLTGLKPGTEYSVLIHGVKGGLLSSPLSAIFTT
notes: FN3 domain
B2: SEQ ID NO 112 (designed binder)
chain: MLPAPKNLVVSRVTEDSARLSWTAPDAAFDSFYIAYAEPRPDGEAILLLVPGSERSYDLTGLKPGTEYSVLIHGVKGGLLSSPLSAIFTT
notes: FN3 domain
B3: SEQ ID NO 133 (designed binder)
chain: MLPAPKNLVVSRVTEDSARLSWTAPDAAFDSFYIAYAEPRPDGEAIYLYVPGSERSYDLTGLKPGTEYSVLIHGVKGGLLSSPLDAFFTT
notes: FN3 domain
B4: SEQ ID NO 113 (designed binder)
chain: MLPAPKNLVVSRVTEDSARLSWTAPDAAFDSFYIAYAEPRPDGEAINLQVPGSERSYDLTGLKPGTEYSVLIHGVKGGLLSSPLVAFFTT
notes: FN3 domain
B5: SEQ ID NO 125 (designed binder)
chain: MLPAPKNLVVSRVTEDSARLSWTAPDAAFDSFYIAYAEPRPDGEAIALHVPGSERSYDLTGLKPGTEYSVLIHGVKGGLLSSPLVAFFTT
notes: FN3 domain
B6: SEQ ID NO 118 (designed binder)
chain: MLPAPKNLVVSRVTEDSARLSWTAPDAAFDSFYIAYAEPRPDGEAIWLVVPGSERSYDLTGLKPGTEYSVLIHGVKGGLLSSPLVASFTT
notes: FN3 domain
B7: SEQ ID NO 117 (designed binder)
chain: MLPAPKNLVVSRVTEDSARLSWTAPDAAFDSFYIAYAEPRPDGEAITLDVPGSERSYDLTGLKPGTEYSVLIHGVKGGLLSSPLSAIFTT
notes: FN3 domain
B8: SEQ ID NO 134 (designed binder)
chain: MLPAPKNLVVSRVTEDSARLSWTAPDAAFDSFYIAYAEPRPDGEAIGLQVPGSERSYDLTGLKPGTEYSVLIHGVKGGLLSSPLSAIFTT
notes: FN3 domain
B9: SEQ ID NO 119 (designed binder)
chain: MLPAPKNLVVSRVTEDSARLSWTAPDAAFDSFYIAYAEPRPDGEAINLDVPGSERSYDLTGLKPGTEYSVLIHGVKGGLLSSPLVAEFTT
notes: FN3 domain
B10: SEQ ID NO 135 (designed binder)
chain: MLPAPKNLVVSRVTEDSARLSWTAPDAAFDSFYIAYAEPRPDGEAIQLAVPGSERSYDLTGLKPGTEYSVLIHGVKGGLLSSPLHAFFTT
notes: FN3 domain
B11: SEQ ID NO 122 (designed binder)
chain: MLPAPKNLVVSRVTEDSARLSWTAPDAAFDSFYIAYAEPRPDGEAIILVVPGSERSYDLTGLKPGTEYSVLIHGVKGGLLSSPLSAHFTT
notes: FN3 domain
B12: SEQ ID NO 129 (designed binder)
chain: MLPAPKNLVVSRVTEDSARLSWTAPDAAFDSFYIAYAEPRPDGEAINLWVPGSERSYDLTGLKPGTEYSVLIHGVKGGLLSSPLDASFTT
notes: FN3 domain
B13: SEQ ID NO 120 (designed binder)
chain: MLPAPKNLVVSRVTEDSARLSWTAPDAAFDSFYIAYAEPRPDGEAIHLSVPGSERSYDLTGLKPGTEYSVLIHGVKGGLLSSPLVAIFTT
notes: FN3 domain
B14: SEQ ID NO 127 (designed binder)
chain: MLPAPKNLVVSRVTEDSARLSWTAPDAAFDSFYIAYAEPRPDGEAIFLGVPGSERSYDLTGLKPGTEYSVLIHGVKGGLLSSPLSAIFTT
notes: FN3 domain
B15: SEQ ID NO 137 (designed binder)
chain: MLPAPKNLVVSRVTEDSARLSWTAPDAAFDSFYIAYAEPRPDGEAIVLDVPGSERSYDLTGLKPGTEYSVLIHGVKGGLLSSPLVAEFTT
notes: FN3 domain
B16: SEQ ID NO 106 (designed binder)
chain: MLPAPKNLVVSRVTEDSARLSWTAPDAAFDSFYIAYAEPRPDGEAILLDVPGSERSYDLTGLKPGTEYSVLIHGVKGGLLSSPLYASFTT
notes: FN3 domain
B17: SEQ ID NO 105 (designed binder)
chain: MLPAPKNLVVSRVTEDSARLSWTAPDAAFDSFYIAYAEPRPDGEAIFLVVPGSERSYDLTGLKPGTEYSVLIHGVKGGLLSSPLHANFTT
notes: FN3 domain
B18: SEQ ID NO 128 (designed binder)
chain: MLPAPKNLVVSRVTEDSARLSWTAPDAAFDSFYIAYAEPRPDGEAIVLRVPGSERSYDLTGLKPGTEYSVLIHGVKGGLLSSPLIASFTT
notes: FN3 domain
B19: SEQ ID NO 138 (designed binder)
chain: MLPTPKNLVVSRVTEDSARLSWTAPDAAFDSFYIAYAEPRPDGEAIQLRVPGSERSYDLTGLKPGTEYSVLIHGVKGGLLSSPLHASFTT
notes: FN3 domain
B20: SEQ ID NO 124 (designed binder)
chain: MLPAPKNLVVSRVTEDSARLSWTAPDAAFDSFYIAYAEPRPDGEAIQLHVPGSERSYDLTGLKPGTEYSVLIHGVKGGLLSSPLLASFTT
notes: FN3 domain
B21: SEQ ID NO 104 (designed binder)
chain: MLPAPKNLVVSRVTEDSARLSWTAPDAAFDSFYIAYAEPRPDGEAISLLVPGSERSYDLTGLKPGTEYSVLIHGVKGGLLSSPLYAVFTT
notes: FN3 domain
B22: SEQ ID NO 132 (designed binder)
chain: MLPAPKNLVVSRVTEDSARLSWTAPDAAFDSFFIPYAEPSPTGEAIVLTVPGSERSYDLTGLKPGTEYSVLIHGVKGGLLSSPLSAHFTT
notes: FN3 domain
B23: SEQ ID NO 131 (designed binder)
chain: MLPAPKNLVVSRVTEDSARLSWTAPDAAFDSFYIAYAEPRPDGEAIHLWVPGSERSYDLTGLKPGTEYSVLIHGVKGGLLSSPLIAHFTT
notes: FN3 domain
B24: SEQ ID NO 116 (designed binder)
chain: MLPAPKNLVVSRVTEDSARLSWTAPDAAFDSFYIAYAEPRPDGEAIQLVVPGSERSYDLTGLKPGTEYSVLIHGVKGGLLSSPLSAIFTT
notes: FN3 domain
B25: SEQ ID NO 103 (designed binder)
chain: MLPAPKNLVVSRVTEDSARLSWTAPDAAFDSFHIVYHEPRPSGEAIWLHVPGSERSYDLTGLKPGTEYEVGIVSVKGGDLSVPLVAFFTT
notes: FN3 domain

Columns and labels:
[1] = target: T1, CD71 apical domain (UniProt P02786 189-383, limits assumed); experiment: solution ELISA, signal ratio to HSA
T1 construct: domain: Apical domain
T1 sequence (P02786 189-383 limits assumed): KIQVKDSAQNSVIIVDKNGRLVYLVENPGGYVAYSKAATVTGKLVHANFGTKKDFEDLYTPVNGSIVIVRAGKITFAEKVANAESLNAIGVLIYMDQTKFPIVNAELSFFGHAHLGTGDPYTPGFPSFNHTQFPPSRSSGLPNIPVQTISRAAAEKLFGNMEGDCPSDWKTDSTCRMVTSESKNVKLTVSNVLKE

[2] = target: T2, recombinant biotinylated human CD71 extracellular domain (human, UniProt P02786 89-760, biotinylated); experiment: solution ELISA, signal ratio to HSA
T2 construct: extracellular domain; also called hCD71; huCD71 ECD
T2 sequence (P02786 other isoform, or with tags, fused parts or gaps): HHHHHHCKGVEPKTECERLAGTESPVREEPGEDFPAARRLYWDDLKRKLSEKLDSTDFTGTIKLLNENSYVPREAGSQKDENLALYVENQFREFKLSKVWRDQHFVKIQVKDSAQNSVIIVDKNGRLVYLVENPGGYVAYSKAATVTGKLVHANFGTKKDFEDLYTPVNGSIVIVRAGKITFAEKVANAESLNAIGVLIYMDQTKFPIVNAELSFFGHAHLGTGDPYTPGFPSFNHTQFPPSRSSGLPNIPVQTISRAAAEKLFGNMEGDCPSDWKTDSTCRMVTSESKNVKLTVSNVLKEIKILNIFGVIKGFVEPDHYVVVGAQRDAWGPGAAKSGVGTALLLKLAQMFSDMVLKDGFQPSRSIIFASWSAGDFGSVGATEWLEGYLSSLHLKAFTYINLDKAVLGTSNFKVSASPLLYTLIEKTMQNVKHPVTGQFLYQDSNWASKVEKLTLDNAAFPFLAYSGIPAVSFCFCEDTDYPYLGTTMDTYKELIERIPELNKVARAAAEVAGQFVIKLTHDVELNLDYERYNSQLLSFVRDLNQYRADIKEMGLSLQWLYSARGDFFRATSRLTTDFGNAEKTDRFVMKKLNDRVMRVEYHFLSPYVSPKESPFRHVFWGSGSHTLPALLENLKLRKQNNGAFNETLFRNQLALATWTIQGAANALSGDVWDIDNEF

[3] = target: T1, CD71 apical domain; experiment: solution ELISA
[4] = target: T2, recombinant biotinylated human CD71 …; experiment: solution ELISA

Row | Binder | apical domain:HSA [1] | hCD71:HSA [2] | Apical domain, RLU [3] [RLU] | hCD71, RLU [4] [RLU]
1 | B1 | 468 | 271 | 6.86e+06 | 3.97e+06
2 | B2 | 709 | 413 | 7.7e+06 | 4.48e+06
3 | B3 | 186 | 41 | 4.74e+06 | 1.04e+06
4 | B4 | 196 | 42.6 | 5.83e+06 | 1.27e+06
5 | B5 | 327 | 76.2 | 5.26e+06 | 1.23e+06
6 | B6 | 459 | 120 | 6.58e+06 | 1.73e+06
7 | B7 | 312 | 75.4 | 5.36e+06 | 1.3e+06
8 | B8 | 309 | 36.7 | 5.39e+06 | 640000
9 | B9 | 228 | 57.6 | 4.93e+06 | 1.25e+06
10 | B10 | 263 | 42.1 | 6.05e+06 | 967000
11 | B11 | 592 | 351 | 8.06e+06 | 4.77e+06
12 | B12 | 264 | 13.8 | 4.18e+06 | 219000
13 | B13 | 487 | 42.5 | 5.75e+06 | 501000
14 | B14 | 292 | 66.3 | 6.24e+06 | 1.41e+06
15 | B15 | 412 | 268 | 7.87e+06 | 5.11e+06
16 | B16 | 176 | 118 | 7.37e+06 | 4.97e+06
17 | B17 | 397 | 142 | 6.79e+06 | 2.43e+06
18 | B18 | 209 | 121 | 7.41e+06 | 4.31e+06
19 | B19 | 369 | 74.3 | 5.35e+06 | 1.08e+06
20 | B20 | 224 | 63.1 | 5.46e+06 | 1.54e+06
21 | B21 | 559 | 89.8 | 5.9e+06 | 947000
22 | B22 | 180 | 43.2 | 7.43e+06 | 1.78e+06
23 | B23 | 269 | 10.3 | 5.28e+06 | 203000
24 | B24 | 427 | 37.1 | 4.93e+06 | 428000
25 | B25 | 143 | 28.2 | 4.14e+06 | 818000
